What was measured:
[1] = biological target: BcMCM Walker B mutant (D711A) (Bacillus cereus (integrated prophage)); test: SEC
[2] = biological target: BcMCM 501–1028 (helicase domain) (Bacillus cereus (integrated prophage)); test: negative-stain electron microscopy
[3] = biological target: BcMCM presensor I β-hairpin mutant (R737A) (Bacillus cereus (integrated prophage)); test: SEC
BcMCM wild type [4] = biological target: T1, BcMCM wild type (Bacillus cereus (prophage), UniProt Q81EV1 1-1028); test: pull-down
T1 sequence: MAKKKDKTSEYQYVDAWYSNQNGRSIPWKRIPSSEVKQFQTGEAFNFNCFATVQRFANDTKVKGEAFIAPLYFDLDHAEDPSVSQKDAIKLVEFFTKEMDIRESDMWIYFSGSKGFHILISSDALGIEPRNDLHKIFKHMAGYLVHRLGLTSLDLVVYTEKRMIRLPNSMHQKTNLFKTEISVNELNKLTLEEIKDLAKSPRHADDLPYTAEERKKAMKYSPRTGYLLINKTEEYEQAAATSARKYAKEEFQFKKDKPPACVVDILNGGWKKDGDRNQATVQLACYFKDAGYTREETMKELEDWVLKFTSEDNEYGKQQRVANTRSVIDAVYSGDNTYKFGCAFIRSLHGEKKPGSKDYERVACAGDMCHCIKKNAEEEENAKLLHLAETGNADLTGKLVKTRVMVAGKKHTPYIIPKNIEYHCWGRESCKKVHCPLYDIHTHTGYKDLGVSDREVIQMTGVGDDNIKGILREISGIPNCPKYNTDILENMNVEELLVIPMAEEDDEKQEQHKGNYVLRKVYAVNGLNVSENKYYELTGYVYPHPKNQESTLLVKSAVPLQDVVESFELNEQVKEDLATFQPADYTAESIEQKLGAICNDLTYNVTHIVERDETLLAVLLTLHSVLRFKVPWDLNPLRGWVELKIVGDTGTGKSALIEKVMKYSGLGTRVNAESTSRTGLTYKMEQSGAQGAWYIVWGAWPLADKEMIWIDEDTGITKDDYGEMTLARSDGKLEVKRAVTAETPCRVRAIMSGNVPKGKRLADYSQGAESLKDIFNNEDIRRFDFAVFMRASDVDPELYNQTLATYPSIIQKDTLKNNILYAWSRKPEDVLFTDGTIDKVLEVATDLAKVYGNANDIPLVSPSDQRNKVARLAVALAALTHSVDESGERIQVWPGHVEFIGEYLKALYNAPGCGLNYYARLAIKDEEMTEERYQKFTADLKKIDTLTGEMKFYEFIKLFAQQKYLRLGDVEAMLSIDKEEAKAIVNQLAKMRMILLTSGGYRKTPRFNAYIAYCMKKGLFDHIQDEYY

BcMCM wild type [5] = biological target: T1, BcMCM wild type; test: EMSA

BcMCM Walker B mutant (D711A) (enzyme)
stoichiometry N [1]: 6

BcMCM 501–1028 (helicase domain) (domain or fragment)
stoichiometry N [2]: 6

BcMCM presensor I β-hairpin mutant (R737A) (enzyme)
stoichiometry N [3]: 6

B1: biotin-EcoRI-(dT)50 tailed duplex (mixed)
DNA 1: TCCCCCGAATTCCCCCCTTTTTTTTTTTTTTTTTTTTTTTTTTTTTTTTTTTTTTTTTTTTTTTTTT
DNA 2: GGGGGGAATTCGGGGG
modifications: 5' biotin on strand 1
binding result (BcMCM wild type [4]): binds

B2: bubble (dsDNA)
DNA 1: ACTGGCCGTCGTTTTACAACGTCGTGACTGGGAAAACCCTGGCGTTACCCAACTTAATCG
DNA 2: CGATTAAGTTGGGTAACGGGTCCCAAAAGGGTCAGTGCTGCATGTAAAACGACGGCCAGT
binding result (BcMCM wild type [5]): binds

B3: template-primer, 3'-end oligo (mixed)
DNA 1: B2 DNA 1
DNA 2: CGATTAAGTTGGGTAACGCC
binding result (BcMCM wild type [5]): binds

B4: template-primer, 5'-end oligo (mixed)
DNA 1: B2 DNA 1
DNA 2: GTTGTAAAACGACGGCCAGT
binding result (BcMCM wild type [5]): binds
